Results published in article PMC11638070 (Nature Structural & Molecular Biology, 2024).
Substitutions are numbered along the chain they refer to. Names may count otherwise. Each block holds one binder with its values, some of them ahead of it.

How the values were obtained:
[1] = molecular target: T1, mitochondrial heat shock protein 60 V72I (mtHsp60^V72I) (human, UniProt P10809 53-573, V72I); experiment: SEC-MALS; mtHsp60 samples 17 µM monomer, without ATP; Shodex Protein KW-804, room temperature, 20 mM HEPES pH 7.5, 100 mM KCl, 10 mM MgCl2; heptamer to monomers; settings: both partners purified
[2] = molecular target: T1, mitochondrial heat shock protein 60 …; experiment: cryo-EM structure; mtHsp60^V72I 0.2-0.6 mg/ml in ATPase buffer without detergent, 1 mM ATP; settings: both partners purified
[3] = molecular target: mtHsp60 Y201A (human, UniProt P10809 53-573, Y201A); experiment: SEC; analytical SEC of each protein alone (mtHsp60 samples 17 µM monomer); Superdex 200 Increase 3.2/300, room temperature, 20 mM HEPES pH 7.5, 100 mM KCl, 10 mM MgCl2; settings: both partners purified
[4] = molecular target: the molecule itself; experiment: as above

- stoichiometry N [1]: 7
- stoichiometry N [2]: 14
B1: mitochondrial heat shock protein 60 V72I (mtHsp60^V72I) (natural protein)
chain: AKDVKFGADARALMLQGVDLLADAVAVTMGPKGRTVIIEQSWGSPKVTKDGVTVAKSIDLKDKYKNIGAKLIQDVANNTNEEAGDGTTTATVLARSIAKEGFEKISKGANPVEIRRGVMLAVDAVIAELKKQSKPVTTPEEIAQVATISANGDKEIGNIISDAMKKVGRKGVITVKDGKTLNDELEIIEGMKFDRGYISPYFINTSKGQKCEFQDAYVLLSEKKISSIQSIVPALEIANAHRKPLVIIAEDVDGEALSTLVLNRLKVGLQVVAVKAPGFGDNRKNQLKDMAIATGGAVFGEEGLTLNLEDVQPHDLGKVGEVIVTKDDAMLLKGKGDKAQIEKRIQEIIEQLDVTTSEYEKEKLNERLAKLSDGVAVLKVGGTSDVEVNEKKDRVTDALNATRAAVEEGIVLGGGCALLRCIPALDSLTPANEDQKIGIEIIKRTLKIPAMTIAKNAGVEGSLIVEKIMQSSSEVGYDAMAGDFVNMVEKGIIDPTKVVRTALLDAAGVASLLTTAEVVVTEIPKEEKDPGMGAMGGMGGGMGGGMF
modifications: heptamer in apo state; ATP/Mg2+/K+ gives double-ring tetradecamer; SNA tag scar left out / heptamer in apo state; ATP/Mg2+/K+ gives double-ring tetradecamer; SNA tag scar left out

- stoichiometry N [3]: 7
B2: mtHsp60 Y201A (natural protein)
chain: B1 chain with I72V, Y201A
modifications: at least partly heptameric by SEC; mature numbering + 26 = precursor; SNA tag scar left out / at least partly heptameric by SEC; mature numbering + 26 = precursor; SNA tag scar left out

B3: mitochondrial malate dehydrogenase labelled with fluorescein isothiocyanate (FITC-mtMDH) (enzyme, human, UniProt P40926 25-338, looked up)
chain: AKVAVLGASGGIGQPLSLLLKNSPLVSRLTLYDIAHTPGVAADLSHIETKAAVKGYLGPEQLPDCLKGCDVVVIPAGVPRKPGMTRDDLFNTNATIVATLTAACAQHCPEAMICVIANPVNSTIPITAEVFKKHGVYNPNKIFGVTTLDIVRANTFVAELKGLDPARVNVPVIGGHAGKTIIPLISQCTPKVDFPQDQLTALTGRIQEAGTEVVKAKAGAGSATLSMAYAGARFVFSLVDAMNGKEGVVECSFVKSQETECTYFSTPLLLGKKGIEKNLGIGKVSSFEEKMISDAIPELKASIKKGEDFVKTLK
modifications: FITC (fluorescein isothiocyanate) label, sites not stated
notes: mitochondrial malate dehydrogenase (mtMDH), human; bacterial expression vector Addgene plasmid no; 38792; Used folded (elutes as a dimer) or chemically denatured (6 M guanidine HCl, 10 mM DTT, 1 h); the two states are told apart by the assays; also called FITC-mtMDH^denat (guanidine-denatured form); source: E. coli Rosetta 2(DE3)pLysS, purified (HisTrap, SEC), labelled with FITC
- stoichiometry N [4]: 2
